In PMC5528828:

Target: MAK33 VL S20N (murine)
Experiment: negative-stain transmission electron microscopy; non-fibrillar oligomers; 50 uM monomer, 25 mM acetic acid, 25 mM phosphoric acid, 50 mM NaCl, pH 2, room temperature, quiescent; number of monomers estimated from the mean particle diameter

stoichiometry N (monomers per oligomer): 30
Substance: MAK33 VL S20N (domain or fragment)
